Results on one molecule are retold here after patent publication US20090118127A1 (Janssen / Centocor, published 2009).

The target of assay [1] is T1, human tumor necrosis factor alpha (TNFα) (human, UniProt P01375 77-233).
T1 construct: also called human TNFα
Description: Biacore (SPR), 3 pairs of experiments. For orientation: Surface plasmon resonance follows binding to a sensor surface in real time, without labels.

For assay [2], the target named is T1, human tumor necrosis factor alpha (TNFα). The assay is described as follows: ELISA, human TNFα coated on the plate, bound antibody detected with HRP anti-human kappa. On the procedure:
Antibodies were assessed for binding to human TNFα using an ELISA format. Briefly, human TNFα was coated into the wells of a 96 well plate and candidate mAbs were incubated at various concentrations (20 to 0.2 ng/ml) and bound antibody was detected with HRP-labeled anti-human kappa light chain IgG (Jackson, ImmunoResearch, West Grove, Pa.).
On the technique in general: ELISA stands for enzyme-linked immunosorbent assay.

The target is the same in assay [3]. The assay is described as follows: Biacore (SPR), calculated KD.

T1 sequence (P01375 77-233 limits assumed): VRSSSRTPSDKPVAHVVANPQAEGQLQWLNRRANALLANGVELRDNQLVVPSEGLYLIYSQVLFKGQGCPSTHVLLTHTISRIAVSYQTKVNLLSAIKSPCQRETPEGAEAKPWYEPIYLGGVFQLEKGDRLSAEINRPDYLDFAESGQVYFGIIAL

B1: Structure Based Human Adapted C7 (antibody, V domains shown)
VH: EVQLVESGGGLVQPGGSLRLSCAASGFIFSNHWMNWVRQAPGKGLEWIGEIRSKSINSATHYAESVKGRFIISRDDNKNSLYLEMNSLKTEDTAEYYCARNYYGSTYDYWGQGTLVTVS
VL: EIVLTQSPDFQSVTPKEKVTITCRASQFVGSSIHWYQQKPDQSPKLLIKYASESMSGVPSRFSGSGSGTDFTFTISSLEAEDAATYYCQQSHSWPFTFGPGTKVDIK
As usually defined, the koff is the rate constant with which the complex falls apart. A high value points to a short-lived complex. One may read the kon as a measure of how fast the partners come together. A low value points to slower complex formation. A word on the EC50 (read off the curve): it is the concentration that produces a half-maximal response. High values mean a less potent agent, low ones a more potent agent. By Kd is commonly meant the equilibrium constant for the complex coming apart. Take B1: in assay [1], the koff was found to be 5.63e-05 s⁻¹ and the kon stood at 803000 M⁻¹ s⁻¹. The “EC50 (read off the curve)” value in assay [2] was approximately 2 ng/mL. Further, the dissociation constant Kd in assay [3] was 0.07 nM.
